Experimental findings from publication PMC8463545, “The predatory soil bacterium Lysobacter reprograms quorum sensing system to regulate antifungal antibiotic production in a cyclic-di-GMP-independent manner” (Communications Biology, 2021) are described below.

Holding throughout (conditions): both partners purified
The target in one experiment is HtsH3C-Myc-His (Lysobacter enzymogenes). The experiment is described as follows: SPR; HtsH cytoplasmic fragments against each other (Supplementary Fig. 5); who was immobilised and conditions not told. Background: SPR reads the build-up and loss of mass on a sensor chip optically.
Another experiment concerns the target HtsH2C-HA-His (Lysobacter enzymogenes). The description is as above.
The next experiment deals with T1, RpfG-MBP (Lysobacter enzymogenes).
T1 chain: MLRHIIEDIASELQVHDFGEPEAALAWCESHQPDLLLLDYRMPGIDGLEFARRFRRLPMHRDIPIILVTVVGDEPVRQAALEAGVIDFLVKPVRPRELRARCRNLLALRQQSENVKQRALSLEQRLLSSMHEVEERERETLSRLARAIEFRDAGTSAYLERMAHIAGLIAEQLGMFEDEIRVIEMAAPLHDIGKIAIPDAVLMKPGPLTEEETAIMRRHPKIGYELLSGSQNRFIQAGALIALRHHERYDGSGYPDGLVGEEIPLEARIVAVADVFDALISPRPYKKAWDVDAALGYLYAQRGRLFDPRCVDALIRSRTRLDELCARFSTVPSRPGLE
Nature of the experiment: SPR; RpfG-MBP on the sensor, HtsH cytoplasmic fragments bound to it; conditions not given.

B1: HtsH1C-Flag-His (domain or fragment)
chain: not shown
modifications: Phosphorylated as purified (CIAP-sensitive). Limits from the expression primers: (M)AKTRFL... to ...LFEREA, just before the His-kinase domain to the C-terminus. The start codon Met and Flag/His tags …
One may read the Kd as the constant that tells how readily two partners part at equilibrium. The low end stands for a tighter complex, the high end for a looser complex. Turning to B1, the Kd in the experiment with HtsH3C-Myc-His was found to be 160 nM; with HtsH2C-HA-His it was 96.2 nM; in the experiment with RpfG-MBP it was 66.8 nM.

B2: HtsH3C-Myc-His (domain or fragment)
chain: not shown
modifications: Phosphorylated as purified (CIAP-sensitive). Primers give (M)AKTRFL... to ...ARRGEG (C-terminus). Positions are inferred from the candidate's His-kinase domain start. Assignment of this entry to …
Consider B2, for which, in the experiment with RpfG-MBP, the Kd came to 168 nM.

B3: HtsH2C-HA-His (domain or fragment)
chain: not shown
modifications: Phosphorylated as purified (CIAP-sensitive). Primers give (M)AKTRFL... to ...DAADAP (C-terminus). The candidate lists no features, so the start is estimated from the paralogues' fragment lengths and …
In the case of B3, the Kd with HtsH3C-Myc-His was found to be 178 nM; in the experiment with RpfG-MBP, 300 nM.
